# Patent US20210261643A1, “INHIBITORS OF P-TEFB MEDIATED TRANSCRIPTION” (The Regents of the University of California, priority 2018, published 2021)
# B1: HT2 (protein)
# chain: KKKHRRRPSKKKRHWKPYYKLTWEEKKKVDMEPVDPYLEPWKHPGSQPRTACNNCYCKKCCFHCYACFTRKGLGISYG
# B2: THT: fusion protein of TAT ARM, HEXIM CDK9 inhibitory domain and TAT P-TEFb-binding domain (protein)
# chain: MEQKLISEEDLRKKRRQRRRAPPGGGGSRIRAEMFAKGQPVAPYNTTQFLMDDHDQEEPDLVDMEPVDPYLEPWKHPGSQPRTACNNCYCKKCCFHCYACFTRKGLGISYG
# B3: Myc-epitope tagged HEXIM1-Tat chimera HT1 (designed binder)
# chain: KKKHRRRPSKKKRHWKPYYKLTWEEKKKFDEKQSLRASRIRAEMFAKGQPVAPYNTTQFLMDDHDQEEPDLVDMEPVDPYLEPWKHPGSQPRTACNNCYCKKCCFHCYACFTRKGLGISYG
# B4: HT3 (protein)
# chain: FDEKQSLRASRIRAEMFAKGQPVAPYNTTQFLMDDHDQEEPDLVDMEPVDPYLEPWKHPGSQPRTACNNCYCKKCCFHCYACFTRKGLGISYG
# How the values were obtained:
# [1] = test system: HIV reactivation in J-Lat 9.2 cells; test: HIV reactivation in J-Lat 9.2 latent infection model, FACS of GFP positive cells; assay type: cell-based; conditions: J-Lat 9.2 cells, PMA 100 nM
# From the text: FIGS. 4A and 4B. Stable expression of HT1 inhibits HIV reactivation. FIG. 4A: Stable expression of HT1 inhibits HIV reactivation from 2D10 cells. 3f:HT1 was stably expressed in 2D10 cells (D-HT cells). […] Error bars represent standard deviation from triplicate FACS analysis. FIG. 4B: Stable expression of HT1 inhibits HIV reactivation from J-Lat 9.2 cells. 3f:HT1 was stably expressed in J-Lat 9.2 cells (L-HT cells). […] Error bars represent standard deviation from triplicate FACS analysis.
# To test the effect of HT1 on HIV-1 in T-lymphocyte derived cells, 3f:HT1 was stably expressed in HIV latent infection models 2D10 and J-Lat 9.2 cells (D-HT and L-HT cells respectively), which carry replication-defective, GFP-flagged HIV proviruses. In both 2D10 and J-Lat 9.2, the basal HIV transcription level is undetectable, as measured through GFP expression. Compounds such as the PKC agonist PMA, the histone deacetylase inhibitor SAHA or the BET bromodomain inhibitor JQ1 reactivate HIV transcription and increase GFP-positive cells detected by FACS analysis. 2D10 cells are more sensitive to HIV reactivation than J-Lat 9.2 cells, though they harbor a mutation in the N-terminal sequence of Tat (H13L). 2D10 and D-HT cells were incubated for 24 hrs with PMA (10 nM), SAHA (5 μM) or JQ1 (1 μM) and GFP positive cells were detected by FACS analysis. […]
# [2] = test system: Tat-dependent gene expression from the HIV promoter; test: Luciferase reporter assay, pLTR-Luc co-transfected with pTat and pHT in 293T cells; assay type: cell-based
# From the text: FIGS. 2A, 2B, and 2C. A HEXIM1-Tat fusion peptide inhibits gene expression from the HIV promoter. FIG. 2A. Structure of the HEXIM1-Tat fusion peptides used in the study. The functional domains used from HEXIM1 and Tat include a HEXIM1 Arginine Rich Motif (ARM, black box, residues 150-162) that binds RNA, a HEXIM1 inhibitory domain (ID, light grey box, residues 200-211) that inhibits CDK9 through a PYNT motif, and Tat transactivation domain (AD, dark grey box, residues 1-48) that binds to P-TEFb. The conceptual schemes are not drawn to scale. FIG. 2B. Transient expression of HT1 inhibits Tat-induced LTR-driven Luc expression. Upper panel: a schema depicts the reporter assay. A luciferase reporter gene (Luc) is under the control of the HIV promoter (P-HIV) and can be activated by ectopically expressed Tat. The Luc assay was used to titrate the inhibitory effect of HT1-3 on P-HIV transactivation by Tat. Middle panel: increasing amounts of m:HT1, m:HT2 or m:HT3 expressing plasmid (pHT) were co-transfected in 293T cells with a plasmid (pTat) expressing f:Tat and another (pLTR-Luc) expressing Luc under the control of the HIV promoter. Luc activity was plotted as % activity relative to control (empty vector used instead of pHT), depending on the transfected pHT:pTat ratio. Error bars in the graph represent standard deviation from triplicate experiments. FIG. 2C. Transient expression of HT1 inhibits Luc expression from HIV-1 NL43ΔenvLuc. Top schema depicts the reporter assay. A luciferase reporter gene (Luc) is inserted in a replication-defective HIV-1 molecular clone (pNL43ΔenvLuc) in which Luc and Tat are under the control of the HIV promoter (P-HIV). A Luc assay was used to titrate the inhibitory effect of HT1-3 on P-HIV transactivation by Tat. Bottom: increasing amounts of pHT1 were co-transfected in 293T cells with pNL43ΔenvLuc. Luc activity was plotted as % activity relative to control (empty vector used instead of pHT), depending on the transfected amounts of pHT1. Error bars in the graph represent standard deviation from triplicate experiments.
# Luciferase (Luc) reporter assays were performed to titrate the potency of each chimera to inhibit Tat-dependent gene expression from the HIV promoter. Effector plasmids included pHT1-3 and pTat, which respectively expressed a Myc-epitope tag chimera (m:HT1-3) and a Flag-epitope tagged Tat (f:Tat). pHT1, pHT2 or pHT3 was transiently co-transfected in 293T cells with pTat and a Luc reporter gene under the control of the HIV promoter (P-HIV, expressed from the plasmid pLTR-Luc). […] Finally, HT1 lead to a 4-fold decrease in Luc expression at a 2:1 ratio. […] Similar results were obtained when co-transfecting pHT1-3 and pTat in NIH1 cells, which stably carry an LTR-Luc reporter gene. Thus, we selected HT1 for further investigation.
# [3] = target: positive transcription elongation factor B (UniProt O60563 1-726; P50750 1-372); test: cell-based or functional assay
# HIV TAR RNA = test: RNA immunoprecipitation and RT-qPCR with TAR-specific primers in 293T cells; assay type: binding; conditions: 293T cells, anti-Myc Ab, RT-qPCR
# Procedure: FIGS. 3A, 3B, 3C and 3D. HT1 prevents Tat from bringing active P-TEFb to TAR. FIG. 3A: HT1 inhibits the kinase activity of P-TEFb subunit CDK9. m:HT1 and/or f:Tat were transiently expressed in 293T cells. Cell lysates were used for IP using anti-Myc Ab (lanes 2-4), or control IgG (lane 1). Immunoprecipitates were incubated with ATP and recombinant GST-CTD proteins for in vitro kinase assay. Six replicate experiments were performed, and mean relative kinase activities are shown in the bar graph to the right. FIG. 3B: HT1 binds to TAR. m:HT1 or m:Tat (or empty vector, EV, as a control) was transiently co-expressed with TAR RNA-expressing pU16TAR in 293T cells. Cell lysates were used for IP using anti-Myc Ab or control IgG. RNA was purified from the immunoprecipitates and submitted to RT-qPCR using TAR-specific primers. Relative TAR enrichment was calculated as qPCR count using anti-Myc Ab minus using IgG, and normalized to EV. Error bars represent standard deviation from triplicate qPCR assays. […] Error bars represent standard deviation from triplicate qPCR assays. FIG. 3D: HT1 competes with Tat for TAR binding. m:HT1 and/or f:Tat were transiently co-expressed with TAR RNA-expressing pU16TAR in 293T cells. Cell lysates were used for IP using anti-Myc Ab or control IgG. RNA was purified from the immunoprecipitates and submitted to RT-qPCR using TAR-specific primers (upper panel). Relative TAR enrichment was calculated as qPCR count using anti-Myc Ab minus using IgG, and normalized to EV. Error bars represent standard deviation from triplicate qPCR assays.
# Finally, since HEXIM1 ARM resembles the TAR-binding domain from Tat, we investigated whether HT1 could bind to HIV TAR. m:HT1 or m:Tat was co-expressed in 293T cells with TAR RNA, expressed under RNA Polymerase III dependent H1 promoter, and immunoprecipitated using anti-Myc Ab or IgG as a control. TAR RNAs co-immunoprecipitated with HT1 or Tat were quantified by RT-qPCR analysis. […] To test whether HT1 affects Tat-TAR interactions, increasing amounts of m:HT1 were also co-expressed with a fixed amount of f:Tat and TAR. […] As expected, HT1 also bound to endogenous 7SK snRNA.
# Chain of positive transcription elongation factor B (O60563 whole entry, chain 1 of 2): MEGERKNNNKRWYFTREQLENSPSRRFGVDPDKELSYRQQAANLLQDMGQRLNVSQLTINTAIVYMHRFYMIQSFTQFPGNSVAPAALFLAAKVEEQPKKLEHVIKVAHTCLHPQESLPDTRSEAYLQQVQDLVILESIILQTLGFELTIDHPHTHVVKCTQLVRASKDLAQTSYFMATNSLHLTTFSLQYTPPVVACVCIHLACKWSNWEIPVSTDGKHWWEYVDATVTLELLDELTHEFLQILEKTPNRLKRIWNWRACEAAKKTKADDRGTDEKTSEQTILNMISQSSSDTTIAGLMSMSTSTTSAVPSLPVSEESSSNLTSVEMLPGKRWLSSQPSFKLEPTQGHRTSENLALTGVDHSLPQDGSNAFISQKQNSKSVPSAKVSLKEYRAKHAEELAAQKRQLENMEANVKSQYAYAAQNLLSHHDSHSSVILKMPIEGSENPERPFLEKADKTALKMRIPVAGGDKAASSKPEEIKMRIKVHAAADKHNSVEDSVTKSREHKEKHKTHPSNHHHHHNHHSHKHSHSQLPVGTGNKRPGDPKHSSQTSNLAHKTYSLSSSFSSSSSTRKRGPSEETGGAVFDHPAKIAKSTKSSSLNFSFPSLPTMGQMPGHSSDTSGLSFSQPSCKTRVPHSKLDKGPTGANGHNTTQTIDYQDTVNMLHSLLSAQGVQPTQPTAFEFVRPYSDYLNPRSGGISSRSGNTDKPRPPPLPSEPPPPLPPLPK
# Chain of positive transcription elongation factor B (P50750 whole entry, chain 2 of 2): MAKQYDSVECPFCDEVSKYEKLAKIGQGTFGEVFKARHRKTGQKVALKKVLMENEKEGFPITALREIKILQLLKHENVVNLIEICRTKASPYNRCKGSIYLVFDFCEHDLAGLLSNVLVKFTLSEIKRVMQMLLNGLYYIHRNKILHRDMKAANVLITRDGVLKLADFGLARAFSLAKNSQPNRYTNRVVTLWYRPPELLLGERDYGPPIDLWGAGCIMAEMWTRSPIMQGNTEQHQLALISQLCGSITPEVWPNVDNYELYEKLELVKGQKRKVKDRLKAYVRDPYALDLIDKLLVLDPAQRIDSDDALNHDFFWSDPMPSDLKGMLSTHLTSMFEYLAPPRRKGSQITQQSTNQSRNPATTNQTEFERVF
molecule,measurement,setting,value
"CCCCCCCCCCCCCC(=O)O[C@@H]1[C@@H](C)[C@@]2(O)[C@@H](C=C(CO)C[C@]3(O)C(=O)C(C)=C[C@@H]23)[C@@H]2C(C)(C)[C@]12OC(C)=O [PMA, reference compound]",increase in GFP expression,[1],12%
B1,inhibition of Luc expression from the HIV promoter (in words),"[2]; 293T cells, ratio of pHT2 to pTat 2:1",failed to inhibit
B2,inhibition of HIV transcription in luciferase assays (in words),[2]; luciferase assays performed as in Example 1,potently inhibited
B3,"fold decrease in relative kinase activity (CTD-P band intensity normalized with CDK9), in vitro kinase assay on immunoprecipitates with ATP and GST-CTD",[3],3.1 fold
B4,immunoprecipitation of TAR RNA (in words),HIV TAR RNA,failed to bind TAR
same,decrease in Luc expression from the HIV promoter,"[2]; 293T cells, pHT:pTat ratio 2:1",≤ 2 fold
